# Data published in patent publication US20050215478A1, “Amino acid sequences capable of facilitating penetration across a biological barrier” (priority 2002, published 2005).
# Several values for one entry are separate records, joined by “and”; a condition that tells them apart may be missing. Equal values may be shown once.
# Legend:
# [1] = Translocation of ^125I-labeled peptide from mouse intestine loop into blood and organs (Example 1); assay type: in vivo, BALB/c mice; settings: for recovered cpm/mouse / blood 15′, total cpm in the blood / blood 30′, total cpm in the blood / blood 60′, total cpm in the blood / blood/injected cpm (%), 15′ / blood/injected cpm (%), 30′ / blood/injected cpm (%), 60′ / recovered/injected cpm (%) / Epididymal fat, cpm recovered / brain, cpm recovered / kidney, cpm recovered / liver, cpm recovered / lungs, cpm recovered: Table 2 formulation (PE 6,200), intestinal loop, 224,160 cpm injected per mouse; for recovered cpm/mouse: blood 60′ plus organs; for blood 15′, total cpm in the blood / blood 30′, total cpm in the blood / blood 60′, total cpm in the blood: calculated from 50 μl sample assuming 2 ml blood; for Epididymal fat, cpm recovered / brain, cpm recovered / kidney, cpm recovered / liver, cpm recovered / lungs, cpm recovered: organ removed after 60 min
# Source text: The tested peptide, representing a penetrating peptide and a radio-labeled probe in a contiguous construct of SEQ ID NO 3 and SEQ ID NO 17, hereby named IBW 002 (Novetide, lot 40139-45, sequence: Ac-NYYDITLALAGICQSARLVQQLAGGGKGGK-NH2 (SEQ ID NO:22), was ^125I-labeled using the Bolton Hunter Reagent (Biochem. J. 133:529-39 (1973)). The labeled peptide was loaded on a Sephadex G10 column, washed with phosphate buffer and eluted with 3M Tiocyanate in DDW+50% n-butanol. The peak, containing 6 fractions, was kept and used for in vivo experiments.
# Four male BALB/c mice, 9-10 weeks old, were deprived of food, 18 hours prior to the experiment.
# The mice were anesthetized by i.p. injection of 0.05 ml of a mixture of 0.15 ml xylazine+0.85 ml of ketamin. A 2 cm long incision was made along the center of the abdomen, through the skin and abdominal wall. An intestine loop was gently pulled out through the incision and placed on wet gauze beside the animal. The loop remained intact through the entire procedure and was kept wet during the whole time. The tested compound was injected into the loop, 0.2 ml/ mouse, containing around 200,000 cpm, using a 26G needle. Fifteen minutes post injection the tip of the tail was cut and a 50 μl blood sample was drawn into a glass capillary. This was repeated 30 and 60 minutes post injection. The animals were subsequently sacrificed. The following organs were removed: epididymal fat, kidneys, liver, lungs and brain. Radioactivity in each organ and in blood samples was counted. A 5 μl sample of the injected solution was counted to determine the total injected cpm per mouse.
# The total radioactive labeling injected per mouse was 224,160 cpm. Total cpm in the blood was calculated based on the 50 μl blood sample drawn out at different time points post injection, in the assumption that total blood volume of each mouse is 2 ml.
# [2] = Relative potency of penetrating peptides as tested in mice (Example 3); assay type: in vivo; settings: IBW-002 = 100
# Source text: Relative Potency of Penetrating Peptides as Tested in Mice.
# [3] = individual mice, listed as 125I-IBW-002
substance,measurement,setting,value
"Ac-NYYDITLALAGICQSARLVQQLAGGGKGGK-NH2 (Ac-NYYDITLALAGICQSARLVQQLAGGGKGGK-NH2; also: 125I label) [IBW-002, ^125I-labeled using the Bolton Hunter Reagent for in vivo tests]",recovered cpm/mouse,[1]; [3],"41,440 cpm and 66,525 cpm and 61,642 cpm and 82,325 cpm"
same,recovered cpm/mouse,[1]; mean of 4 mice,"62,983 cpm"
same,"blood 15′, total cpm in the blood",[1]; [3],"37,080 cpm and 68,960 cpm and 62,280 cpm and 80,280 cpm"
same,"blood 30′, total cpm in the blood",[1]; [3],"36,120 cpm and 60,680 cpm and 52,320 cpm and 70,840 cpm"
same,"blood 60′, total cpm in the blood",[1]; [3],"29,720 cpm and 47,800 cpm and 44,000 cpm and 59,720 cpm"
same,"blood 15′, total cpm in the blood",[1]; mean of 4 mice,"62,150 cpm"
same,"blood 30′, total cpm in the blood",[1]; mean of 4 mice,"54,990 cpm"
same,"blood 60′, total cpm in the blood",[1]; mean of 4 mice,"45,310 cpm"
same,"blood/injected cpm (%), 15′",[1]; [3],16.54% and 30.76% and 27.78% and 35.81%
same,"blood/injected cpm (%), 30′",[1]; [3],16.11% and 27.07% and 23.34% and 31.60%
same,"blood/injected cpm (%), 60′",[1]; [3],13.26% and 21.32% and 19.63% and 26.64%
same,recovered/injected cpm (%),[1]; [3],18.49% and 29.68% and 27.50% and 36.73%
same,"blood/injected cpm (%), 15′",[1]; mean of 4 mice,27.73%
same,"blood/injected cpm (%), 30′",[1]; mean of 4 mice,24.53%
same,"blood/injected cpm (%), 60′",[1]; mean of 4 mice,20.21%
same,recovered/injected cpm (%),[1]; mean of 4 mice,28.10%
same,"Epididymal fat, cpm recovered",[1]; [3],"547 cpm and 869 cpm and 973 cpm and 1,174 cpm"
same,"brain, cpm recovered",[1]; [3],138 cpm and 190 cpm and 202 cpm and 301 cpm
same,"kidney, cpm recovered",[1]; [3],"4,068 cpm and 6,614 cpm and 6,400 cpm and 7,650 cpm"
same,"liver, cpm recovered",[1]; [3],"6,102 cpm and 9,709 cpm and 8,718 cpm and 11,674 cpm"
same,"lungs, cpm recovered",[1]; [3],"865 cpm and 1,343 cpm and 1,349 cpm and 1,806 cpm"
same,"Epididymal fat, cpm recovered",[1]; mean of 4 mice,891 cpm
same,"brain, cpm recovered",[1]; mean of 4 mice,208 cpm
same,"kidney, cpm recovered",[1]; mean of 4 mice,"6,183 cpm"
same,"liver, cpm recovered",[1]; mean of 4 mice,"9,051 cpm"
same,"lungs, cpm recovered",[1]; mean of 4 mice,"1,341 cpm"
same,time at which the relative amount in the blood peaked,"[1]; post-intestinal administration, blood sampled at 15, 30 and 60 min, Table 2 formulation",15 min
same,Relative potency (%),[2],100%
